Source: patent US20180296689A1 (published 2018)

How the values were obtained:
[1] = molecular target: Human neonatal receptor (FcRn) (human, UniProt P55899 24-297, limits assumed); assay: SPR (BIACore), low density FcRn biosensor chip, three runs of five dilutions
[2] = molecular target: T1, TROP-2 (EGP-1), human, on tumor cell lines (human, UniProt P09758 27-323); assay: cell binding on TROP-2-positive PC-3 human prostate carcinoma cells, three separate occasions
T1 construct: whole, on cells; 36-kDa cell-surface glycoprotein; also called epithelial glycoprotein-1
T1 sequence (looked up): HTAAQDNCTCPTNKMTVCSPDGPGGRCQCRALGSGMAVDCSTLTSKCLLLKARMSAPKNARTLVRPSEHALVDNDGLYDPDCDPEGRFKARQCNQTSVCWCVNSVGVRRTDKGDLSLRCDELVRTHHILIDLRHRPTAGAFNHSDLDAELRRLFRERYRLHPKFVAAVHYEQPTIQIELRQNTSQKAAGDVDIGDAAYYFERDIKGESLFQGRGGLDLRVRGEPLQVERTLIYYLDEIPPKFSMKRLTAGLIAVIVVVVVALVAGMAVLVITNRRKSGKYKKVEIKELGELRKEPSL

Sequence of Human neonatal receptor (FcRn) (P55899 24-297 limits assumed): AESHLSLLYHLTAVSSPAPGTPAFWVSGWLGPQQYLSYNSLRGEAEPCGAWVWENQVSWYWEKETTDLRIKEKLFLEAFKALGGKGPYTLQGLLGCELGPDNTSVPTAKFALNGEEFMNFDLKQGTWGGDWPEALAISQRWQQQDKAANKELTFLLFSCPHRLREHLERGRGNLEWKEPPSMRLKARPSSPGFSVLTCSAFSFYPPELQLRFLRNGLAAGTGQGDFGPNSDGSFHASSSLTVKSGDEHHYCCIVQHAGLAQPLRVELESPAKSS

- Kd [1]: 192 nM
- Kd [2]: 0.564 nM
B1: hRS7 IgG (humanized anti-TROP-2 IgG1 monoclonal antibody, unconjugated) (antibody)
chain 1: not shown
chain 2: DIQLTQSPSSLSASVGDRVSITCKASQDVSIAVAWYQQKPGKAPKLLIYSASYRYTGVPDRFSGSGSGTDFTLTISSLQPEDFAVYYCQQHYITPLTFGAGTKVEIKRTVAAPSVFIFPPSDEQLKSGTASVVCLLNNFYPREAKVQWKVDNALQSGNSQESVTEQDSKDSTYSLSSTLTLSKADYEKHKVYACEVTHQGLSSPVTKSFNRGEC
